Assay results as given in patent publication US20060263331A1, “Therapeutic use of tumor necrosis factor-alpha mutein” (priority 2002, published 2006).

Legend:
[1] = test system: Malignant Lymphoma; assay: Clinical monotherapy of rhTNFm1, malignant lymphoma; format: in vivo, human; conditions: 71 patients
Description: (§1) Patients were selected based on the following criteria: i) measurable, objective tumor; ii) Karnofsky performance status (KPS)≧60; iii) age 18-75; iv) major organs in basically normal condition; v) no chemotherapy, radiotherapy and biologic therapy within the last month; vi) predicted ≧3 mon. survival; and vii) with patient's informed consent signed.
(§2) Patients were excluded based on the following criteria: i) with history of allergic reactions to TNF or its derivatives; ii) pregnant or lactating women; iii) major organs with obvious damages or malfunction; iv) in ≧38° C. fever; v) with obvious tendency to haemorrhage; vi) with history of hypo- or hypertension; vii) with serious albuminemia; and viii) with strong tendency of disobedience or resistance.
(§3) Patients were removed from the evaluation if any of the following conditions apply: i) treatment was not completed according to the protocol; ii) incomplete records; and iii) treatment using cancer therapies not in the protocol. However, patients who withdrew due to adverse reactions to the therapy were still included in the evaluation.
The results of the treatment of tumors were evaluated based the following criteria: i) complete response (CR)—complete disappearance of observable pathological changes for at least 4 weeks; ii) partial response (PR)—reduction by ≧50% in tumor size measured by the product of the maximum circular and vertical dimensions for at least 4 weeks; iii) minimum response (MR)—reduction by >25% but <50% in tumor size measured by the product of the maximum circular and vertical dimensions for at least 4 weeks; iv) stabilized (SD)—reduction by ≦25% but without increase by >25% in tumor size measured by the product of the maximum circular and vertical dimensions for at least 4 weeks; and progression (PD): increase by >25% in tumor size in one or more sites.
Patients rested on day 1 and 2. The treatment cycle was 3-4 weeks.
Table II summaries results of the treatment of patients with malignant lymphoma, classified according to Hodgkin's disease and non-Hodgkin's lymphoma. Within each of category of lymphoma, patients were further classified into two groups: chemo-naïve and chemo-refractory. The chemo-naïve patients were patients who had never been treated with any anti-cancer agent previously whereas chemo-refractory patients were ones who failed treatment with one or more anti-cancer agent.

[2] = test system: malignant ascites; assay: Clinical monotherapy of rhTNFm1, malignant ascites; format: in vivo, human; conditions: 28 patients, monotherapy i.p.
Description: as §1, §2, §3
The results of the treatment of malignant pleural effusion (or hydrothorax) and ascites were evaluated based on a modified Millar standard (Millar J W, Hunfer A M, Home N W. (1980) “Inerapleural immunotherapy with CP”, in Recurrent Malignant Pleural Effusions. Thorax 35:856): i) complete response (CR)—complete disappearance of pleural effusion or ascites for at least 1 month; ii) partial response (PR)—reduction by at least 1 grade for at least 1 month; iii) minimum response (MR)—reduction in the levels of pleural effusion or ascites within the same grade for at least 1 month; iv) stabilized (SD)—levels of pleural effusion or ascites maintained within the same grade for at least 1 month; and progressed (PD): increase in the levels of pleural effusion or ascites compared with those before the treatment.
It is noted that Table III includes the patients who withdrew due to […], including 1 with malignant pleural effusion and 1 with malignant ascites. For patients with malignant ascites, rhTNFm1 was reconstituted in 30-50 ml normal saline and administered intraperitoneally (i.p.) at 2,000,000-3,000,000 units each time, 1-2 times a week, with 2-3 weeks as one treatment cycle. Optionally, rhTNFm1 was administered to the patients by alternating between i.p. injection and i.v. injection (at 600,000-900,000 unit/m^2 per day continuing for 28 days as one treatment cycle). On the day when rhTNFm1 was administered via i.p. injection, administration of rhTNFm1 via i.v. injection was stopped.

B1: rhTNFm1: Recombinant human TNF-α mutant 1 expressed in E. coli; SEQ ID NO: 3 with N-terminal methionine (FIG. 1, 2) (protein)
chain: MRKRKPVAHVVANPQAEGQLQWLNRRANALLANGVELRDNQLVVPSEGLYLIYSQVLFKGQGCPSTHVLLTHTISRIAVSYQTKVNLLSAIKSPCQRETPEGAEAKPWYEPIYLGGVFQLEKGDRLSAEINRPDYLDFAESGQVYFGIIAQ
modifications: rhTNFm1 with Met
Response Rate (%) CR [1]: 2.82% | Response Rate (%) CR + PR [1]: 28.17% | Response Rate (%) PR [1]: 25.35% | Efficacy CR ([1]; patient count): 2 | Efficacy MR ([1]; patient count): 8 | Efficacy PD ([1]; patient count): 11 | Efficacy PR ([1]; patient count): 18 | Efficacy SD ([1]; patient count): 32 | Response Rate (%) CR [2]: 3.57% | Response Rate (%) CR + PR [2]: 42.86% | Response Rate (%) PR [2]: 39.29% | Efficacy CR ([2]; patient count): 1 | Efficacy MR ([2]; patient count): 3 | Efficacy PD ([2]; patient count): 1 | Efficacy PR ([2]; patient count): 11 | Efficacy SD ([2]; patient count): 12
